Legend:
[1] = tested on: HeLa Kyoto; assay: solubility in G1/S (NP-40 vs SDS abundance) (log2 ratio); higher = more soluble; details: cell cycle stage: G1/S
[2] = tested on: HeLa Kyoto; assay: solubility change mitosis vs G1/S (difference of NP-40 vs SDS log2 ratios) (log2 ratio difference); higher = more soluble in mitosis
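For solubility change mitosis vs G1/S (difference of NP-40 vs SDS log2 ratios) in this document: synchronized HeLa Kyoto cells (double thymidine block for G1/S, nocodazole release for mitosis), protein amounts in NP-40 versus SDS lysates quantified by mass spectrometry, three biological replicates.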
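For solubility in G1/S (NP-40 vs SDS abundance) in this document: HeLa Kyoto cells arrested at G1/S by double thymidine block, proteins quantified by TMT10plex mass spectrometry in mild NP-40 versus SDS extracts, three biological replicates.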

| Sequence | solubility in G1/S (log2) [1] | solubility change mitosis (log2) [2] |
| --- | --- | --- |
| MAAQAAAAAQAAAAQAAQAEAADSWYLALLGFAEHFRTSSPPKIRLCVHCLQAVFPFKPPQRIEARTHLQLGSVLYHHTKNSEQARSHLEKAWLISQQIPQFEDVKFEAASLLSELYCQENSVDAAKPLLRKAIQISQQTPYWHCRLLFQLAQLHTLEKDLVSACDLLGVGAEYARVVGSEYTRALFLLSKGMLLLMERKLQEVHPLLTLCGQIVENWQGNPIQKESLRVFFLVLQVTHYLDAGQVKSVKPCLKQLQQCIQTISTLHDDEILPSNPADLFHWLPKEHMCVLVYLVTVMHSMQAGYLEKAQKYTDKALMQLEKLKMLDCSPILSSFQVILLEHIIMCRLVTGHKATALQEISQVCQLCQQSPRLFSNHAAQLHTLLGLYCVSVNCMDNAEAQFTTALRLTNHQELWAFIVTNLASVYIREGNRHQEVLYSLLERINPDHSFPVSSHCLRAAAFYVRGLFSFFQGRYNEAKRFLRETLKMSNAEDLNRLTACSLVLLGHIFYVLGNHRESNNMVVPAMQLASKIPDMSVQLWSSALLRDLNKACGNAMDAHEAAQMHQNFSQQLLQDHIEACSLPEHNLITWTDGPPPVQFQAQNGPNTSLASLL [MAU2] | -0.154 | -0.0035 |
| MAATDIARQVGEGCRTVPLAGHVGFDSLPDQLVNKSVSQGFCFNILCVGETGLGKSTLMDTLFNTKFEGEPATHTQPGVQLQSNTYDLQESNVRLKLTIVSTVGFGDQINKEDSYKPIVEFIDAQFEAYLQEELKIRRVLHTYHDSRIHVCLYFIAPTGHSLKSLDLVTMKKLDSKVNIIPIIAKADAISKSELTKFKIKITSELVSNGVQIYQFPTDDESVAEINGTMNAHLPFAVIGSTEELKIGNKMMRARQYPWGTVQVENEAHCDFVKLREMLIRVNMEDLREQTHTRHYELYRRCKLEEMGFKDTDPDSKPFSLQETYEAKRNEFLGELQKKEEEMRQMFVQRVKEKEAELKEAEKELHEKFDRLKKLHQDEKKKLEDKKKSLDDEVNAFKQRKTAAELLQSQGSQAGGSQTLKRDKEKKNNPWLCTE [SEPT6] | 0.186 | -0.0909 |
| MAATDLERFSNAEPEPRSLSLGGHVGFDSLPDQLVSKSVTQGFSFNILCVGETGIGKSTLMNTLFNTTFETEEASHHEACVRLRPQTYDLQESNVQLKLTIVDAVGFGDQINKDESYRPIVDYIDAQFENYLQEELKIRRSLFDYHDTRIHVCLYFITPTGHSLKSLDLVTMKKLDSKVNIIPIIAKADTISKSELHKFKIKIMGELVSNGVQIYQFPTDDEAVAEINAVMNAHLPFAVVGSTEEVKVGNKLVRARQYPWGVVQVENENHCDFVKLREMLIRVNMEDLREQTHSRHYELYRRCKLEEMGFQDSDGDSQPFSLQETYEAKRKEFLSELQRKEEEMRQMFVNKVKETELELKEKERELHEKFEHLKRVHQEEKRKVEEKRRELEEETNAFNRRKAAVEALQSQALHATSQQPLRKDKDKKNRSDIGAHQPGMSLSSSKVMMTKASVEPLNCSSWWPAIQCCSCLVRDATWREGFL [SEPT8] | -0.0316 | -0.0125 |
| MACSLQKLFAVEEEFEDEDFLSAVEDAENRFTGSLPVNAGRLRPVSSRPQETVQAQSSRLLLLHPTAPSEALGLPDLDLCLPASSTPSADSRPSCIGAAPLRPVSTSSSWIGNQRRVTVTEVLRETARPQSSALHPLLTFESQQQQVGGFEGPEQDEFDKVLASMELEEPGMELECGVSSEAIPILPAQQREGSVLAKKARVVDLSGSCQKGPVPAIHKAGIMSAQDESLDPVIQCRTPRPPLRPGAVGHLPVPTALTVPTQQLHWEVCPQRSPVQALQPLQAARGTIQSSPQNRFPCQPFQSPSSWLSGKAHLPRPRTPNSSCSTPSRTSSGLFPRIPLQPQAPVSSIGSPVGTPKGPQGALQTPIVTNHLVQLVTAASRTPQQPTHPSTRAKTRRFPGPAGILPHQQSGRSLEDIMVSAPQTPTHGALAKFQTEIVASSQASVEEDFGRGPWLTMKSTLGLDERDPSCFLCTYSIVMVLRKQAALKQLPRNKVPNMAVMIKSLTRSTMDASVVFKDPTGEMQGTVHRLLLETCQNELKPGSVLLLKQIGVFSPSLRNHYLNVTPNNLVHIYSPDSGDGSFLKPSQPFPKDSGSFQHDVAAKPEEGFRTAQNLEAEASPEEELPEADDLDGLLSELPEDFFCGTSS [C17ORF53] | 0.384 | 0.0975 |
| MADLHRQLQEYLAQGKAGGPAAAEPLLAAEKAEEPGDRPAEEWLGRAGLRWTWARSPAESAAAGLTCLPSVTRGQRLAAGGGCLLLAALCFGLAALYAPVLLLRARKFALLWSLGSALALAGSALLRGGAACGRLLRCEEAPSRPALLYMAALGATLFAALGLRSTLLTVLGAGAQVAALLAALVGLLPWGGGTALRLALGRLGRGAGLAKVLPV [SFT2D3] | -0.165 | -0.136 |
| MAEGDAGSDQRQNEEIEAMAAIYGEEWCVIDDCAKIFCIRISDDIDDPKWTLCLQVMLPNEYPGTAPPIYQLNAPWLKGQERADLSNSLEEIYIQNIGESILYLWVEKIRDVLIQKSQMTEPGPDVKKKTEEEDVECEDDLILACQPESSLKALDFDISETRTEVEVEELPPIDHGIPITDRRSTFQAHLAPVVCPKQVKMVLSKLYENKKIASATHNIYAYRIYCEDKQTFLQDCEDDGETAAGGRLLHLMEILNVKNVMVVVSRWYGGILLGPDRFKHINNCARNILVEKNYTNSPEESSKALGKNKKVRKDKKRNEH [IMPACT] | 0.0693 | 0.00643 |
| MAEGEGYFAMSEDELACSPYIPLGGDFGGGDFGGGDFGGGDFGGGGSFGGHCLDYCESPTAHCNVLNWEQVQRLDGILSETIPIHGRGNFPTLELQPSLIVKVVRRRLAEKRIGVRDVRLNGSAASHVLHQDSGLGYKDLDLIFCADLRGEGEFQTVKDVVLDCLLDFLPEGVNKEKITPLTLKEAYVQKMVKVCNDSDRWSLISLSNNSGKNVELKFVDSLRRQFEFSVDSFQIKLDSLLLFYECSENPMTETFHPTIIGESVYGDFQEAFDHLCNKIIATRNPEEIRGGGLLKYCNLLVRGFRPASDEIKTLQRYMCSRFFIDFSDIGEQQRKLESYLQNHFVGLEDRKYEYLMTLHGVVNESTVCLMGHERRQTLNLITMLAIRVLADQNVIPNVANVTCYYQPAPYVADANFSNYYIAQVQPVFTCQQQTYSTWLPCN [FAM46A] | -0.00125 | -0.172 |
| MAEHAPRRCCLGWDFSTQQVKVVAVDAELNVFYEESVHFDRDLPEFGTQGGVHVHKDGLTVTSPVLMWVQALDIILEKMKASGFDFSQVLALSGAGQQHGSIYWKAGAQQALTSLSPDLRLHQQLQDCFSISDCPVWMDSSTTAQCRQLEAAVGGAQALSCLTGSRAYERFTGNQIAKIYQQNPEAYSHTERISLVSSFAASLFLGSYSPIDYSDGSGMNLLQIQDKVWSQACLGACAPHLEEKLSPPVPSCSVVGAISSYYVQRYGFPPGCKVVAFTGDNPASLAGMRLEEGDIAVSLGTSDTLFLWLQEPMPALEGHIFCNPVDSQHYMALLCFKNGSLMREKIRNESVSRSWSDFSKALQSTEMGNGGNLGFYFDVMEITPEIIGRHRFNTENHKVAAFPGDVEVRALIEGQFMAKRIHAEGLGYRVMSKTKILATGGASHNREILQVLADVFDAPVYVIDTANSACVGSAYRAFHGLAGGTDVPFSEVVKLAPNPRLAATPSPGASQVYEALLPQYAKLEQRILSQTRGPPE [XYLB] | -0.242 | 0.111 |
| MAEKFDHLEEHLEKFVENIRQLGIIVSDFQPSSQAGLNQKLNFIVTGLQDIDKCRQQLHDITVPLEVFEYIDQGRNPQLYTKECLERALAKNEQVKGKIDTMKKFKSLLIQELSKVFPEDMAKYRSIRGEDHPPS [MED10] | -0.142 | 0.446 |

Reference: the supplement of paper PMC5998384
